Data on one molecule can be found in publication PMC5390082 (Scientific Reports, 2015).

This assay deals with T1, Trifunctional enzyme (TFP), ECHA/ECHB, immunopurified from human macrophage extract (human (endogenous in THP-1), UniProt P40939 37-763; P55084 34-474).
T1 construct: also called immunopurified human TFP
Put plainly: SPR; Biacore 3000; […]; 20 mM Tris-HCl pH 8.0, 50 mM NaCl, 5 mM EDTA, 0.005% P20, 1 mM DTT; […]. As to conditions: both partners purified.

T1 sequence (P40939 37-763, chain 1 of 2): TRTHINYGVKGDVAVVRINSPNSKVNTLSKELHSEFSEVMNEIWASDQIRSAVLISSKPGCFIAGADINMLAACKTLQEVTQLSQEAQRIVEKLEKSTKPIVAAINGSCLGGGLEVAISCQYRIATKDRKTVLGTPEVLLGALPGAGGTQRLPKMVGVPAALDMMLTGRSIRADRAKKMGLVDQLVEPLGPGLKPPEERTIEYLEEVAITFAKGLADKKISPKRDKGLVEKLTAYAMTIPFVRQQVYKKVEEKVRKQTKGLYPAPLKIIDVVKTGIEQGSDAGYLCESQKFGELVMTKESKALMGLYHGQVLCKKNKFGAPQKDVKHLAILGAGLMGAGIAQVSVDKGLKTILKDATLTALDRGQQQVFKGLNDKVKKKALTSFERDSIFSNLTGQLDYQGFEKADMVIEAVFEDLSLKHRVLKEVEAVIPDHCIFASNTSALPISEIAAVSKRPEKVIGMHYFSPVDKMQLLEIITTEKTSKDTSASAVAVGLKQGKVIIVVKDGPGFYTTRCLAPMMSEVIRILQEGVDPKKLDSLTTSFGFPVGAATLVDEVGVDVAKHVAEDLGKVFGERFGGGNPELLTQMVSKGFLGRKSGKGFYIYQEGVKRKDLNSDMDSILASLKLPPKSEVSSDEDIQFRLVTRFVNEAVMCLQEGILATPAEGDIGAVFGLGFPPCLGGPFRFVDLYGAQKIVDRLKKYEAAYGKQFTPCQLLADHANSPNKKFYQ
T1 sequence (P55084 34-474, chain 2 of 2): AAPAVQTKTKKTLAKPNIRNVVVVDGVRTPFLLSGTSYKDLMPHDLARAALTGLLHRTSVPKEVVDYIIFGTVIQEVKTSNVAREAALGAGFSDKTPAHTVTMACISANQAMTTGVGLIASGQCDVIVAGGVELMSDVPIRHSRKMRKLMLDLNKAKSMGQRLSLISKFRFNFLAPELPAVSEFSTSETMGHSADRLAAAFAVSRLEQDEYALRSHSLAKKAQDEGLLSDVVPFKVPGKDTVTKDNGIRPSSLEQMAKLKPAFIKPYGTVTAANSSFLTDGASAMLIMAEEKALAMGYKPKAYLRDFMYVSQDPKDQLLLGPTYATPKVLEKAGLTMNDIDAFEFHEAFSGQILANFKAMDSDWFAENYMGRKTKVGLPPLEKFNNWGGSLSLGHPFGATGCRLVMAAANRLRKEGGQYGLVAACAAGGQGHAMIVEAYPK

B1: Mycobacterium tuberculosis protein tyrosine phosphatase PtpA wt (enzyme)
chain: MSDPLHVTFVCTGNICRSPMAEKMFAQQLRHRGLGDAVRVTSAGTGNWHVGSCADERAAGVLRAHGYPTDHRAAQVGTEHLAADLLVALDRNHARLLRQLGVEAARVRMLRSFDPRSGTHALDVEDPYYGDHSDFEEVFAVIESALPGLHDWVDERLARNGPS
Turning to B1, the binding result is “binds”.
